# Measurements reported in the Immune Epitope Database (IEDB).
# Experiments:
# HLA-A*02:01 [1] = assay: IEDB peptide-MHC binding, purified MHC/competitive/radioactivity; filed as Kd, often an IC50 or EC50 that approximates it; ≥ and ≤ were set here for values at or beyond the usual limits of such assays; details: source organism: Homo sapiens
# HLA-A*02:01 [2] = assay: IEDB peptide-MHC binding, purified MHC/competitive/radioactivity; ≥ and ≤ were set here for values at or beyond the usual limits of such assays; details: source organism: Homo sapiens
# HLA-A*26:01 [3] = assay: IEDB peptide-MHC binding, purified MHC/competitive/fluorescence; filed as Kd, often an IC50 or EC50 that approximates it; ≥ and ≤ were set here for values at or beyond the usual limits of such assays; details: source organism: Homo sapiens
# HLA-B*15:42 = assay: as above; details: source organism: Homo sapiens
# HLA-B*27:03 = assay: as above; details: source organism: Homo sapiens
# HLA-B*45:06 = assay: as above; details: source organism: Homo sapiens
# HLA-A*32:15 = assay: as above; details: source organism: Homo sapiens
# HLA-A*03:01 [4] = assay: as above; details: source organism: Homo sapiens
# HLA-B*83:01 = assay: as above; details: source organism: Homo sapiens
# HLA-A*02:01 [5] = assay: as above; details: source organism: Homo sapiens
# HLA-C*12:03 = assay: IEDB peptide-MHC binding, purified MHC/direct/fluorescence; filed as Kd, often an IC50 or EC50 that approximates it; ≥ and ≤ were set here for values at or beyond the usual limits of such assays; details: source organism: Homo sapiens
# HLA-B*08:01 [6] = assay: IEDB peptide-MHC binding, purified MHC/competitive/fluorescence; ≥ and ≤ were set here for values at or beyond the usual limits of such assays; details: source organism: Zaire ebolavirus
# HLA-B*07:02 [7] = assay: as above
# HLA-B*15:01 [8] = assay: as above
# HLA-A*02:01 [9] = assay: as above
# HLA-A*26:01 [10] = assay: IEDB peptide-MHC binding, purified MHC/direct/fluorescence; filed as Kd, often an IC50 or EC50 that approximates it; ≥ and ≤ were set here for values at or beyond the usual limits of such assays; details: source organism: Giardia lamblia ATCC 50803
# HLA-A*26:02 [11] = assay: as above
# HLA-A*31:01 [12] = assay: IEDB peptide-MHC binding, purified MHC/competitive/fluorescence; filed as Kd, often an IC50 or EC50 that approximates it; ≥ and ≤ were set here for values at or beyond the usual limits of such assays; details: source organism: Dengue virus 2 Thailand/NGS-C/1944
# HLA-A*11:01 [13] = assay: as above
# HLA-A*24:02 = assay: IEDB peptide-MHC binding, purified MHC/competitive/fluorescence; ≥ and ≤ were set here for values at or beyond the usual limits of such assays; details: source organism: Variola virus
# HLA-A*03:01 [14] = assay: as above; details: source organism: Variola virus
# HLA-A*11:01 [15] = assay: as above; details: source organism: Variola virus
# HLA-A*26:02 [16] = assay: IEDB peptide-MHC binding, purified MHC/competitive/fluorescence; filed as Kd, often an IC50 or EC50 that approximates it; ≥ and ≤ were set here for values at or beyond the usual limits of such assays; details: source organism: Orthomarburgvirus marburgense
# HLA-B*08:01 [17] = assay: IEDB peptide-MHC binding, purified MHC/direct/fluorescence; filed as Kd, often an IC50 or EC50 that approximates it; ≥ and ≤ were set here for values at or beyond the usual limits of such assays
# HLA-B*15:02 = assay: as above; details: source organism: Orthomarburgvirus marburgense
# HLA-B*15:01 [18] = assay: as above
# HLA-B*27:05 = assay: as above
# HLA-B*48:01 = assay: as above
# HLA-B*57:01 = assay: as above
# HLA-A*01:01 = assay: as above; details: source organism: Marburg virus - Musoke, Kenya, 1980
# HLA-B*46:01 = assay: as above
# HLA-A*31:01 [19] = assay: as above
# HLA-B*58:01 = assay: as above
# HLA-B*15:17 [20] = assay: as above; details: source organism: Marburg virus - Musoke, Kenya, 1980
# HLA-B*07:02 [21] = assay: as above
# HLA-A*02:01 [22] = assay: as above
# HLA-A*68:02 = assay: as above; details: source organism: Marburg virus - Musoke, Kenya, 1980
# HLA-A*11:01 [23] = assay: as above; details: source organism: Marburg virus - Musoke, Kenya, 1980
# HLA-A*69:01 = assay: as above
# HLA-B*15:01 [24] = assay: IEDB peptide-MHC binding, purified MHC/competitive/radioactivity; filed as Kd, often an IC50 or EC50 that approximates it; ≥ and ≤ were set here for values at or beyond the usual limits of such assays; details: source organism: Dengue virus 1 Brazil/97-11/1997
# HLA-A*30:02 = assay: as above; details: source organism: Dengue virus 1 Brazil/97-11/1997
# HLA-B*15:17 [25] = assay: IEDB peptide-MHC binding, purified MHC/competitive/fluorescence; filed as Kd, often an IC50 or EC50 that approximates it; ≥ and ≤ were set here for values at or beyond the usual limits of such assays; details: source organism: Influenza A virus (A/Hong Kong/1074/1999(H9N2))
# HLA-B*40:01 = assay: IEDB peptide-MHC binding, purified MHC/direct/fluorescence; filed as Kd, often an IC50 or EC50 that approximates it; ≥ and ≤ were set here for values at or beyond the usual limits of such assays; details: source organism: Influenza A virus (A/Hong Kong/514/97(H5N1))
# HLA-A*03:01 [26] = assay: as above; details: source organism: Influenza A virus (A/Hong Kong/514/97(H5N1))
# HLA-C*08:02 = assay: as above; details: source organism: Influenza A virus (A/Hong Kong/1074/1999(H9N2))
# [27] = source organism: Zaire ebolavirus
# [28] = source organism: Marburg virus - Musoke, Kenya, 1980
# [29] = source organism: Influenza A virus (A/Hong Kong/514/97(H5N1))
sequence,measurement,setting,value
ARDPHSGHFV,Kd,HLA-A*02:01 [1],2.71 µM
same,IC50,HLA-A*02:01 [2],≥ 20 µM
FLNPVIYTF,Kd,HLA-A*26:01 [3],≥ 20 µM
same,Kd,HLA-B*15:42,≥ 5 µM
same,Kd,HLA-B*27:03,≥ 20 µM
same,Kd,HLA-B*45:06,≥ 5 µM
same,Kd,HLA-A*32:15,0.024 µM
same,Kd,HLA-A*03:01 [4],≥ 20 µM
same,Kd,HLA-B*83:01,0.24 µM
same,Kd,HLA-A*02:01 [5],0.0016 µM
same,Kd,HLA-C*12:03,0.029 µM
GGRRTRREA,IC50,HLA-B*08:01 [6],≥ 223 µM
same,IC50,HLA-B*07:02 [7]; [27],≥ 120 µM
GLMHNQDGL,IC50,HLA-B*15:01 [8]; [27],51.6 µM
same,IC50,HLA-B*07:02 [7]; [27],≥ 81.9 µM
same,IC50,HLA-A*02:01 [9]; [27],1.58 µM
ITSGHSWAY,Kd,HLA-A*26:01 [10],0.028 µM
same,Kd,HLA-A*26:02 [11]; source organism: Giardia lamblia ATCC 50803,0.034 µM
KTFVDLMRR,Kd,HLA-A*31:01 [12],0.00102 µM
same,Kd,HLA-A*11:01 [13]; source organism: Dengue virus 2 Thailand/NGS-C/1944,0.0123 µM
KVFLPNPAF,IC50,HLA-A*24:02,9.77 µM
same,IC50,HLA-B*15:01 [8]; source organism: Variola virus,21 µM
same,IC50,HLA-A*03:01 [14],64.8 µM
same,IC50,HLA-B*07:02 [7]; source organism: Variola virus,≥ 143 µM
same,IC50,HLA-A*02:01 [9]; source organism: Variola virus,55.1 µM
same,IC50,HLA-A*11:01 [15],40.5 µM
NQQVTNSKY,Kd,HLA-A*26:02 [16],≥ 20 µM
same,Kd,HLA-B*08:01 [17]; source organism: Orthomarburgvirus marburgense,≥ 20 µM
same,Kd,HLA-B*15:02,0.087 µM
same,Kd,HLA-B*15:01 [18]; [28],0.0803 µM
same,Kd,HLA-B*27:05; [28],≥ 20 µM
same,Kd,HLA-B*48:01; [28],≥ 20 µM
same,Kd,HLA-B*57:01; [28],≥ 20 µM
same,Kd,HLA-A*01:01,≥ 20 µM
same,Kd,HLA-B*46:01; [28],≥ 20 µM
same,Kd,HLA-A*31:01 [19]; [28],≥ 20 µM
same,Kd,HLA-B*58:01; [28],≥ 20 µM
same,Kd,HLA-B*15:17 [20],≥ 20 µM
same,Kd,HLA-B*07:02 [21]; [28],≥ 20 µM
same,Kd,HLA-A*02:01 [22]; [28],≥ 20 µM
same,Kd,HLA-A*68:02,≥ 20 µM
same,Kd,HLA-A*11:01 [23],≥ 20 µM
same,Kd,HLA-A*69:01; [28],≥ 20 µM
RPVILSLPR,IC50,HLA-B*07:02 [7]; source organism: Variola virus,15 µM
same,IC50,HLA-A*02:01 [9]; source organism: Variola virus,≥ 187 µM
same,IC50,HLA-A*11:01 [15],≥ 122 µM
SVKKDLISY,Kd,HLA-B*15:01 [24],0.00596 µM
same,Kd,HLA-A*30:02,0.0261 µM
same,Kd,HLA-A*26:02 [11]; source organism: dengue virus type 3,0.002 µM
VSDGGPNLY,Kd,HLA-B*15:17 [25],0.192 µM
same,Kd,HLA-A*11:01 [13]; source organism: Influenza A virus (A/Hong Kong/1074/1999(H9N2)),≥ 20 µM
same,Kd,HLA-B*08:01 [17]; source organism: Influenza A virus H3N2,≥ 20 µM
same,Kd,HLA-B*15:01 [18]; [29],2.99 µM
same,Kd,HLA-B*27:05; [29],≥ 20 µM
same,Kd,HLA-B*40:01,≥ 20 µM
same,Kd,HLA-B*48:01; [29],≥ 20 µM
same,Kd,HLA-B*57:01; [29],16.7 µM
same,Kd,HLA-B*46:01; [29],≥ 20 µM
same,Kd,HLA-A*03:01 [26],≥ 20 µM
same,Kd,HLA-A*31:01 [19]; [29],≥ 20 µM
same,Kd,HLA-B*58:01; [29],0.553 µM
same,Kd,HLA-C*08:02,0.086 µM
same,Kd,HLA-B*07:02 [21]; [29],≥ 20 µM
same,Kd,HLA-A*02:01 [22]; [29],≥ 20 µM
same,Kd,HLA-A*69:01; [29],≥ 20 µM
